Tests used:
[1] = biological target: HIF1β (human (endogenous in LS174T and in patient renal tissue)) (UniProt P27540); assay: FRET or BRET; two-site aiFRET read by frequency-domain FLIM on tissue microarray cores (normal renal tissue B7, ccRCC cores A1 and A2); median Ef over 10-20 hand-picked regions of interest; donor ATTO488 on HIF1β or PD-1, acceptor Alexa594 (TSA) on HIF2α or PD-L1; Ef below 4% regarded as non-interactive
[2] = biological target: HIF1β (human (endogenous in LS174T and in patient renal tissue)) (UniProt P27540); assay: FRET or BRET; FuncOmap: Ef computed for each coincidence region of the two-site aiFRET/FLIM images of tissue microarray cores (HIF1β/HIF2α: B7, A5; PD-1/PD-L1: B7, B5, A5); Otsu thresholding; Ef below 4% regarded as non-interactive
[3] = biological target: HIF1β (human (endogenous in LS174T and in patient renal tissue)) (UniProt P27540); assay: FRET or BRET; FuncOmap: Ef computed for each coincidence region of the two-site aFRET/FLIM images, HIF1β/HIF2α in ccRCC core B5; Otsu thresholding; Ef below 4% regarded as non-interactive
[4] = biological target: HIF1β (human (endogenous in LS174T and in patient renal tissue)) (UniProt P27540); assay: FRET or BRET; two-site amplified FRET (aFRET) read by frequency-domain FLIM on PFA-fixed, permeabilised LS174T cells under hypoxia (1% O2, 48 h); donor ATTO488 on anti-HIF-1β, acceptor Alexa594 (TSA) on anti-HIF-2α; Ef below 4% regarded as non-interactive
[5] = biological target: PD-1 (human (endogenous in patient renal tissue)) (UniProt Q15116); assay: FRET or BRET; two-site aiFRET read by frequency-domain FLIM on tissue microarray cores (normal renal tissue B7, ccRCC cores A1 and A2); median Ef over 10-20 hand-picked regions of interest; donor ATTO488 on HIF1β or PD-1, acceptor Alexa594 (TSA) on HIF2α or PD-L1; Ef below 4% regarded as non-interactive
[6] = biological target: PD-1 (human (endogenous in patient renal tissue)) (UniProt Q15116); assay: FRET or BRET; FuncOmap: Ef computed for each coincidence region of the two-site aiFRET/FLIM images of tissue microarray cores (HIF1β/HIF2α: B7, A5; PD-1/PD-L1: B7, B5, A5); Otsu thresholding; Ef below 4% regarded as non-interactive

Sequence of PD-L1 (Q9NZQ7 19-290): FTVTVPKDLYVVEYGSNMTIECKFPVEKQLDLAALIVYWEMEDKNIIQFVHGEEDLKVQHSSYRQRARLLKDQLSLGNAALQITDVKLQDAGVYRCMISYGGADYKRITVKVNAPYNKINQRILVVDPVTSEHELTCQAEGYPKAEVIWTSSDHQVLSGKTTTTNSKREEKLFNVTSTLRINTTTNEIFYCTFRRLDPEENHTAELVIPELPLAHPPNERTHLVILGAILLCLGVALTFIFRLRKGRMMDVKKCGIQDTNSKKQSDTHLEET
Sequence of HIF1β (human (endogenous in LS174T and in patient renal tissue)) (P27540 whole entry): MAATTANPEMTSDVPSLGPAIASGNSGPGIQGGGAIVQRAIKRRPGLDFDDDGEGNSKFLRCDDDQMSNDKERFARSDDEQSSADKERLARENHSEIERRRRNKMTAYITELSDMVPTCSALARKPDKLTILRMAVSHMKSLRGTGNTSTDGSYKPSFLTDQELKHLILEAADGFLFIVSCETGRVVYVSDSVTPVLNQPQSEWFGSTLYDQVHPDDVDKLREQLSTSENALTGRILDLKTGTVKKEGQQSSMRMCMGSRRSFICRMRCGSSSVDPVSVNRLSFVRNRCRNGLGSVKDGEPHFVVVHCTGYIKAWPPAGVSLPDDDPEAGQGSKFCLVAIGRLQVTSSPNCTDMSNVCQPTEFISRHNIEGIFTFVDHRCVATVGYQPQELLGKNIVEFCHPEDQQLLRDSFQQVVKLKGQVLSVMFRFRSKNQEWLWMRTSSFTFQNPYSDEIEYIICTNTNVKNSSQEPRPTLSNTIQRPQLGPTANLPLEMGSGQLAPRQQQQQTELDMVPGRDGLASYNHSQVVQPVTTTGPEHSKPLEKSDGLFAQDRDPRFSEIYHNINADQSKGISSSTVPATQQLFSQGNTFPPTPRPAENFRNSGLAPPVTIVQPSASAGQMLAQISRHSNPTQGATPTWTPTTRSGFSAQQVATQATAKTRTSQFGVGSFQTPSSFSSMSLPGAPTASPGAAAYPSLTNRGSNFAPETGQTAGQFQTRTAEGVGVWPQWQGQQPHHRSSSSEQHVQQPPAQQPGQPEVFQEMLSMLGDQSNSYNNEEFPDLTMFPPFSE
Sequence of PD-1 (human (endogenous in patient renal tissue)) (Q15116 25-288): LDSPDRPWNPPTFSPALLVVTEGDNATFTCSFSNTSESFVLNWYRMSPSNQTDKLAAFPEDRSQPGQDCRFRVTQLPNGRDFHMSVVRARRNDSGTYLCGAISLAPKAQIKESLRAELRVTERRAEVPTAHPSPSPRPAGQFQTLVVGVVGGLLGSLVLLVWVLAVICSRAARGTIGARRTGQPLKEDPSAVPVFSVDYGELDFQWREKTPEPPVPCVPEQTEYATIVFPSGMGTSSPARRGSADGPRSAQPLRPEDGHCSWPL

With “HIF2α (from UniProt Q99814 1-870) (natural protein)” the median Ef, ccRCC core A1 [1] was 13.6%, the median Ef, ccRCC core A2 [1] was 9.3% and the median Ef, normal tissue [1] was 6.7%. It also gave an Ef, core A5, region 12 [2] of 12.2%, an Ef, core A5, region 78 [2] of 13.5% and an Ef, core A5, region 83 [2] of 12.7%. The Ef, core A5, region 131 [2] was 13.5%, the Ef, core A5, region 168 [2] was 12.2% and the Ef, core A5, region 187 [2] was 12.2%. The Ef, core A5, region 189 [2] was 16%, the Ef, core A5, region 235 [2] was 15.4% and the Ef, core A5, region 276 [2] was 12.2%. The Ef, core A5, region 294 [2] was 13.5%, the Ef, core A5, region 383 [2] was 16% and the Ef, core A5, region 400 [2] was 12.2%. The Ef, core A5, region 531 [2] was 13.5%, the Ef, core A5, region 619 [2] was 13.5% and the Ef, core A5, region 679 [2] was 12.2%. It also gave an Ef, core A5, region 733 [2] of 11.4%, an Ef, core A5, region 817 [2] of 13.5% and an Ef, core A5, region 822 [2] of 12.2%. The Ef, core A5, region 826 [2] was 12.2%, the Ef, core A5, region 829 [2] was 16% and the Ef, core A5, region 1273 [2] was 12.2%. The Ef, core A5, region 1299 [2] was 16%, the Ef, core A5, region 1302 [2] was 19.8% and the Ef, core A5, region 1307 [2] was 21.1%. The Ef, core A5, region 1308 [2] was 14.8%, the Ef, core B7, region 64 [2] was 0% and the Ef, core B7, region 231 [2] was 0%. The Ef, core B7, region 402 [2] was 0%, the Ef, core B7, region 632 [2] was 0% and the Ef, core B7, region 633 [2] was 0%. The Ef, core B7, region 634 [2] was 0%, the Ef, core B7, region 635 [2] was 0% and the Ef, core B7, region 636 [2] was 0%. The Ef, core B7, region 637 [2] was 0%, the Ef, core B7, region 638 [2] was 0% and the Ef, core B7, region 639 [2] was 0%. The Ef, core B7, region 640 [2] was 0%, the Ef, core B7, region 641 [2] was 0% and the Ef, core B7, region 657 [2] was 0%. It also gave an Ef, core B7, region 662 [2] of 7.66%, an Ef, core B7, region 664 [2] of 0% and an Ef, core B7, region 672 [2] of 4.95%. It also gave an Ef, core B7, region 685 [2] of 0%, an Ef, core B7, region 686 [2] of 0% and an Ef, core B7, region 712 [2] of 0%. The Ef, core B7, region 719 [2] was 0%, the Ef, core B7, region 729 [2] was 0% and the Ef, core B7, region 754 [2] was 0%. The Ef, core B7, region 943 [2] was 0%, the Ef, core B7, region 950 [2] was 0% and the Ef, core B5, region 61 [3] was 0%. For the same substance, the Ef, core B5, region 80 [3] was 0%, the Ef, core B5, region 103 [3] was 0% and the Ef, core B5, region 140 [3] was 0%. The Ef, core B5, region 162 [3] was 0%, the Ef, core B5, region 167 [3] was 0% and the Ef, core B5, region 174 [3] was 0%. For the same substance, the Ef, core B5, region 198 [3] was 0%, the Ef, core B5, region 199 [3] was 0% and the Ef, core B5, region 220 [3] was 0%. The Ef, core B5, region 230 [3] was 0%, the Ef, core B5, region 242 [3] was 0% and the Ef, core B5, region 246 [3] was 0%. For the same substance, the Ef, core B5, region 277 [3] was 0%, the Ef, core B5, region 318 [3] was 0% and the Ef, core B5, region 431 [3] was 0%. The Ef, core B5, region 452 [3] was 0%, the Ef, core B5, region 585 [3] was 0% and the Ef, core B5, region 586 [3] was 0%. For the same substance, the Ef, core B5, region 592 [3] was 0%, the Ef, core B5, region 600 [3] was 0% and the Ef, core B5, region 601 [3] was 0%. The Ef, core B5, region 632 [3] was 0%, the Ef, core B5, region 659 [3] was 0% and the Ef, core B5, region 669 [3] was 0%. It also gave a median FRET efficiency (hypoxia) [4] of 7.75%.
“PD-L1 (from UniProt Q9NZQ7 19-290) (ligand)” was tested, and the median Ef, normal tissue [5] was 5.24%, the Ef, core A5, region 57 [6] was 0% and the Ef, core A5, region 63 [6] was 10.9%. For the same substance, the Ef, core A5, region 92 [6] was 8.6%, the Ef, core A5, region 110 [6] was 8.34% and the Ef, core A5, region 186 [6] was 8.16%. For the same substance, the Ef, core A5, region 421 [6] was 5.03%, the Ef, core A5, region 448 [6] was 7.7% and the Ef, core A5, region 482 [6] was 9.31%. The Ef, core A5, region 505 [6] was 7.72%, the Ef, core A5, region 564 [6] was 8.82% and the Ef, core A5, region 639 [6] was 11.2%. For the same substance, the Ef, core A5, region 653 [6] was 12.1%, the Ef, core A5, region 812 [6] was 16.7% and the Ef, core A5, region 823 [6] was 9.22%. The Ef, core A5, region 929 [6] was 8.25%, the Ef, core A5, region 949 [6] was 6.49% and the Ef, core A5, region 1053 [6] was 12.9%. The Ef, core A5, region 1064 [6] was 10.6%, the Ef, core A5, region 1113 [6] was 4.28% and the Ef, core A5, region 1241 [6] was 6.86%. The Ef, core A5, region 1250 [6] was 10.1%, the Ef, core A5, region 1255 [6] was 8.24% and the Ef, core A5, region 1274 [6] was 8.32%. It also gave an Ef, core A5, region 1360 [6] of 6.13%, an Ef, core A5, region 1405 [6] of 12.4% and an Ef, core B5, region 81 [6] of 21.8%. The Ef, core B5, region 107 [6] was 30.6%, the Ef, core B5, region 176 [6] was 28.4% and the Ef, core B5, region 249 [6] was 23.6%. For the same substance, the Ef, core B5, region 261 [6] was 15.7%, the Ef, core B5, region 373 [6] was 24% and the Ef, core B5, region 546 [6] was 24.8%. The Ef, core B5, region 551 [6] was 16.4%, the Ef, core B5, region 586 [6] was 17% and the Ef, core B5, region 622 [6] was 23.1%. For the same substance, the Ef, core B5, region 774 [6] was 25.1%, the Ef, core B5, region 841 [6] was 29.4% and the Ef, core B5, region 930 [6] was 28.3%. For the same substance, the Ef, core B5, region 1104 [6] was 21.1%, the Ef, core B5, region 1155 [6] was 20.4% and the Ef, core B5, region 1187 [6] was 0%. For the same substance, the Ef, core B5, region 1246 [6] was 15.8%, the Ef, core B5, region 1288 [6] was 26.3% and the Ef, core B5, region 1500 [6] was 28.5%. The Ef, core B5, region 1612 [6] was 13.9%, the Ef, core B5, region 1772 [6] was 20.8% and the Ef, core B5, region 1811 [6] was 24%. For the same substance, the Ef, core B5, region 1878 [6] was 18.1%, the Ef, core B5, region 2043 [6] was 20.4% and the Ef, core B5, region 2232 [6] was 28.3%. It also gave an Ef, core B7, region 24 [6] of 21.5%, an Ef, core B7, region 67 [6] of 14.2% and an Ef, core B7, region 102 [6] of 16.1%. It also gave an Ef, core B7, region 197 [6] of 21.2%, an Ef, core B7, region 233 [6] of 48.4% and an Ef, core B7, region 299 [6] of 16.3%. It also gave an Ef, core B7, region 356 [6] of 20%, an Ef, core B7, region 384 [6] of 16.5% and an Ef, core B7, region 442 [6] of 19.1%. For the same substance, the Ef, core B7, region 548 [6] was 23.4%, the Ef, core B7, region 561 [6] was 12.8% and the Ef, core B7, region 648 [6] was 26.6%. The Ef, core B7, region 772 [6] was 14.2%, the Ef, core B7, region 905 [6] was 12% and the Ef, core B7, region 984 [6] was 22.3%. For the same substance, the Ef, core B7, region 1009 [6] was 28.9%, the Ef, core B7, region 1273 [6] was 23.4% and the Ef, core B7, region 1454 [6] was 29.9%. It also gave an Ef, core B7, region 1657 [6] of 18.1%, an Ef, core B7, region 1711 [6] of 25.7% and an Ef, core B7, region 1750 [6] of 18.1%. The Ef, core B7, region 1861 [6] was 27.4%, the Ef, core B7, region 1919 [6] was 14.7% and the Ef, core B7, region 1932 [6] was 26.4%. The Ef, core B7, region 1973 [6] was 28.4%.

— publication PMC11524007
